Experimental data reported in publication PMC8782820.

How the values were obtained:
[1] = molecular target: hepcidin-imprinted silk fibroin (SilMA) nanoparticles, bioMIPs (Bombyx mori); assay: ITC; hepcidin 28 μM (syringe, 50 μL) titrated into bioMIP or control SF-NPs 2.5 μM (220 μL) in 50 mM PBS pH 7.4, 25 °C, 16 injections of 3 μL; independent site model; triplicate
[2] = molecular target: hepcidin-imprinted silk fibroin (SilMA) nanoparticles, bioMIPs (Bombyx mori); assay: competitive fluorescence assay; 30 μg/well of bioMIPs with hepcidin-depleted pooled serum (10 μL in 150 μL PBS 10 mM pH 7.4, 0.08% Tween-20), hepfitc 500 or 250 pmol, hepcidin competitor 0.11, 0.34, 0.68, 2.70 μM; displacement from ≥ 120 min of incubation; Hill fit
[3] = molecular target: hepcidin-imprinted silk fibroin (SilMA) nanoparticles, bioMIPs (Bombyx mori); assay: other fluorescence titration; 37.5 μg of bioMIPs or non-imprinted SF-NPs per well incubated with hepfitc 3 nM–2.5 μM in PBS 10 mM pH 7.4 with 0.08% Tween-20, read at 30 min; Langmuir fit; apparent
[4] = molecular target: hepcidin-imprinted silk fibroin (SilMA) nanoparticles, bioMIPs (Bombyx mori); assay: competitive fluorescence assay; bioMIPs incubated with hepfitc (500 pmol) alone or with one competitor (hepcidin; angiotensin, cytochrome c or human serum albumin 6 nmol); bound hepfitc at 30 min; triplicate

| Kd [1] | dH [1] | stoichiometry N [1] | Ka [2] | Kd [2] | Kd [3] | imprinting factor (hepfitc bound to the bioMIP with respect to that bound to the NIP) [3] | hepfitc bound at 30 min [4] | Substance |
| --- | --- | --- | --- | --- | --- | --- | --- | --- |
| 0.36 µM | -58.5 kJ/mol | 2.1 | 2.41e+06 M⁻¹ | 0.41 µM |  |  |  | Hepcidin-25 (from UniProt P81172 60-84) (peptide) |
|  |  |  |  |  | 1.67 µM | 2 | 125 pmol | fluorescent hepcidin (hepfitc) (peptide) |
